Experimental data from patent US6759384.
Non-standard residues stand in square brackets, D forms with d. 2Nal = N[C@@H](Cc1ccc2ccccc2c1)C(=O)O; Chg = N[C@H](C(=O)O)C1CCCCC1

target: human factor Xa (Enzyme Research Laboratories, Inc.) (human) (UniProt P00742); experiment: cell-based or functional assay
Sequence (P00742 41-179 limits assumed, chain 1 of 2): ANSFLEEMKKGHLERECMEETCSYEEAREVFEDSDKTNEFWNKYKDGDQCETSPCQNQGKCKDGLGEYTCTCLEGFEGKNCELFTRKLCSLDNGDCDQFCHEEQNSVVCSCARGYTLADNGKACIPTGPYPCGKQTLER
Sequence (P00742 235-488 limits assumed, chain 2 of 2): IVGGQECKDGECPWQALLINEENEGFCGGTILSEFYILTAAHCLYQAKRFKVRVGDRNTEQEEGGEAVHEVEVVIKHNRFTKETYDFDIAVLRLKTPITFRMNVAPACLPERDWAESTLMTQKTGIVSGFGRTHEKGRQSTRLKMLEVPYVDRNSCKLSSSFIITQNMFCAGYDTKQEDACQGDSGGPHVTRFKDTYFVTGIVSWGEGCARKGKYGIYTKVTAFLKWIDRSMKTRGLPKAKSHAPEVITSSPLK

EC50 (concentration giving 50% inhibition of coagulation), in vitro dilute prothrombin time assay, pooled human plasma	Substance
0.14 µM	Ac-[2Nal][Chg]RLP-NH2
0.0025 µM	Ac-Y-Chg-R-NH2 (peptide)

target: human factor Xa (Enzyme Research Laboratories, Inc.) (human) (UniProt P00742); experiment: chromogenic FXa inhibition

Ki	Substance
< 100 µM	Ac-[2Nal][Chg]RLP-NH2
< 100 µM	Ac-Y-Chg-R-NH2 (peptide)
< 100 µM	Ac-D-pAph-Chg-Arg-N(carboxymethyl)Gly-Pro-NH2 (peptide)
< 100 µM	Ac-Y-I-R-NH-4-morpholinyl (peptide)
< 100 µM	Ac-(iBu)Y-Chg-R-NH2 (peptide)
< 100 µM	Ac-(Bzl)G-(Chx)Gly-(3-GuanidoPropyl)G-NH2 (peptide)
< 100 µM	Ac-Y-Chg-R-NH-CH2CH2-COOH (peptide)
< 100 µM	Ac-Pal(4)Me-Chg-Arg-Leu-Pro-NH2 (peptide)
< 100 µM	Ac-pAph-Chg-PalMe(3)-NH-(4-methoxycarbonyl-cyclohexyl)methyl (peptide)
< 100 µM	(2-benzofuroyl)-pAph-Chg-Arg-Pen(CH2COOH)-Pro-NH2 (peptide)
< 100 µM	(2-benzofuroyl)-pAph-Chg-PalMe(3)-Pen(CH2COOH)-Pro-NH2 (peptide)
< 100 µM	Ac-Y-I-PalMe(3)-NH2 (peptide)
< 100 µM	Ac-pAph-Chg-PalMe(3)-NH-(4-carboxycyclohexyl) methyl (peptide)
< 100 µM	Ac-(iBu)F(pNH2)-Chg-R-NH2 (peptide)

target: human factor Xa (Enzyme Research Laboratories, Inc.) (human) (UniProt P00742); experiment: chromogenic enzyme inhibition, IC50 corrected for substrate

Ki	Substance
2 µM	TENSTOP (N-alpha-tosyl-Gly-p-amidinophenylalanine methyl ester)

target: human thrombin (Enzyme Research Laboratories, Inc.) (human) (UniProt P00734); experiment: as above

Ki	Substance
2 µM	TENSTOP (N-alpha-tosyl-Gly-p-amidinophenylalanine methyl ester)
